In experiment [1] the target is T349M (UniProt O00255). The experiment in a line: fluorescence polarization competition. On the technique in general: In fluorescence polarisation assays a small probe gives low polarisation when free and higher when bound to something large.
For experiment [2], the target named is M327I (UniProt O00255). The experiment in a line: fluorescence polarization competition.
Experiment [3] deals with WT (UniProt O00255). In words: fluorescence polarization competition.
Experiment [4] deals with StrepII-Avi-TEV-Menin (wild-type human Menin, recombinant, E. coli) (UniProt O00255). In words: fluorescence polarization.
Experiment [5] deals with StrepII-Avi-TEV-Menin T349M (recombinant mutant human Menin) (UniProt O00255). The experiment in a line: fluorescence polarization.
In experiment [6] the target is StrepII-Avi-TEV-Menin M327I (recombinant mutant human Menin) (UniProt O00255). In words: fluorescence polarization.

The IC50 is the point on the concentration scale where inhibition reaches its midpoint. A low value points to greater potency in that assay. As a reminder, the Ki is the equilibrium dissociation constant of an inhibitor or competing ligand from its target. A lower Ki goes with a stronger hold on the target. On to MLL1 Peptide, for which the IC50 turned out to be 101 nM in experiment [1], 20.3 nM in experiment [2] and 26.1 nM in experiment [3]. Moreover, the inhibition constant Ki in experiment [1] was 51.4 nM; in experiment [2], 7.78 nM; in experiment [3], 9.17 nM.

One may read the Kd as the equilibrium constant for the complex coming apart. Regarding “N-terminally FITC-labelled MLL2(15-48) peptide”, the Kd in experiment [4] came out at 1.78 nM; in experiment [5], 3.7 nM; in experiment [6], 2.56 nM.

For the origin of these results see patent US20260185163A1, “MEN1 MUTATIONS AND USES THEREOF” (DANA-FARBER CANCER INSTITUTE, INC., priority 2022, published 2026).
